Measurements reported in paper PMC6422423 (2019).
Where no end group is shown, it is not given here.

Biological target: gastrin-releasing peptide receptor (UniProt P30550 1-384)
Test: competition with 125I-GRP

Chain of gastrin-releasing peptide receptor (P30550 whole entry): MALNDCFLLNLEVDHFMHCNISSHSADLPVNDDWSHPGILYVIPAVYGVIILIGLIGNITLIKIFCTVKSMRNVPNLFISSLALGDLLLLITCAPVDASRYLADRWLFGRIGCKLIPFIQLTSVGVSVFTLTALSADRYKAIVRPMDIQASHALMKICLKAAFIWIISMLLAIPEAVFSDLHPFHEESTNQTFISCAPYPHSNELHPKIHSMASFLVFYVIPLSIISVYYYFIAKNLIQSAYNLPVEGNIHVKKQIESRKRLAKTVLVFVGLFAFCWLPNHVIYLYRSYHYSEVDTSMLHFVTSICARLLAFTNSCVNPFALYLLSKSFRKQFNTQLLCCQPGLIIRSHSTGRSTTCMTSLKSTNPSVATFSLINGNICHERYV

Binder YKIKVNPRGNLWATGHFM (ends and bridges not checked) [neuromedin B, unlabeled ligand peptide of the radioligand binding assays] has an IC50 of 0.151 µM.

APLQPGGSPALTKIYPRGSHWAVGHLM (ends and bridges not checked) [gastrin-releasing peptide, unlabeled ligand peptide of the radioligand binding assays] gave an IC50 of 0.0002 µM.
